Values quoted from earlier work, collected in PMC7850986.

Columns and labels:
IFNAR1 (Homo sapiens) = IFNAR1 (Homo sapiens) (UniProt P17181)
IFNAR2 (Homo sapiens) = IFNAR2 (Homo sapiens) (UniProt P48551)
Sequence of UniProt P48551 (P48551 27-243): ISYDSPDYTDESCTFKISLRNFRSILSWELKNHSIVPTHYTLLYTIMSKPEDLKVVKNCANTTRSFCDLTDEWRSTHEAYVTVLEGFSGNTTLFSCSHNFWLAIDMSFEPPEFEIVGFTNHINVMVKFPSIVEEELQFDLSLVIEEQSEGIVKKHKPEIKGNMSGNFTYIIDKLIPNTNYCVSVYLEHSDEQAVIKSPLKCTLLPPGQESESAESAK

Sequence of UniProt P17181 (P17181 28-436): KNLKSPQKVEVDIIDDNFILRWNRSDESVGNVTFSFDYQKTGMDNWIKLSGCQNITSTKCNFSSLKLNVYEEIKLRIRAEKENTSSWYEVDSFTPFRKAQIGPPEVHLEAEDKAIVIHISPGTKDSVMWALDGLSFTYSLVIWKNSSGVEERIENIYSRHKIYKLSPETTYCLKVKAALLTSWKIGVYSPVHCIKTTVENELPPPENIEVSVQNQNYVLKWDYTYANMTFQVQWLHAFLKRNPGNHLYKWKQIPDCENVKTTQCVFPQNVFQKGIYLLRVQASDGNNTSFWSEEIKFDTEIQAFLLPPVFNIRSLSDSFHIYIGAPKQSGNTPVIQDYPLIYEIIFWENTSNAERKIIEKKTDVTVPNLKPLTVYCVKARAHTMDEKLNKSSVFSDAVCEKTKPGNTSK

Kd (IFNAR1 (Homo sapiens)): 100 nM
Kd (IFNAR2 (Homo sapiens)): 0.1 nM
Substance: IFNβ (from UniProt P01574)
